What all share (test): ELISA
For test [1], the target named is T1, human TfR-1 (human, UniProt P02786).
The target in another test is T2, human TfR-2 (human, UniProt Q9UP52).
T2 chain: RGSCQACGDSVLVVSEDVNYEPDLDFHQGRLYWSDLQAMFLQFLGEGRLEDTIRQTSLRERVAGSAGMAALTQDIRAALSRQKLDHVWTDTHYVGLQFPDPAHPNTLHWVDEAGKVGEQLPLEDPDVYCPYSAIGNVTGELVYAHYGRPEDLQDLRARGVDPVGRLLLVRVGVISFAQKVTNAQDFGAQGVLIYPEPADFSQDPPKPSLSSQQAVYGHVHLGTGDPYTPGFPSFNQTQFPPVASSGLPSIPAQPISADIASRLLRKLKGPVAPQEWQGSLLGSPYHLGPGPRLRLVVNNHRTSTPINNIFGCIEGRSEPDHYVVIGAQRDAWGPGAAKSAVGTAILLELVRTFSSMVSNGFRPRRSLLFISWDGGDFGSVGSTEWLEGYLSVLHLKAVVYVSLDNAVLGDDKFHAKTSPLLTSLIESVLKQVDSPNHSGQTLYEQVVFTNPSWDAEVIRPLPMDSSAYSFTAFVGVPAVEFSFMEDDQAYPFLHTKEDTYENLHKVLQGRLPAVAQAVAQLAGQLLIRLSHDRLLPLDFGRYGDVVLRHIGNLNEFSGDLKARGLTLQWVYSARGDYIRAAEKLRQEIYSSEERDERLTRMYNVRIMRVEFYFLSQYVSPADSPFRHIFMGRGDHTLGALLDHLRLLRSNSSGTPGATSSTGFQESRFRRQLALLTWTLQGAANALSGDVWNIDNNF

Test [2] addresses T3, mouse TfR-1 (mouse, UniProt Q62351).
The target in test [3] is T1, human TfR-1. This is another data set of the same source.
In test [4] the target is T3, mouse TfR-1. This is another data set of the same source.
Test [5] has as its target T1, human TfR-1. The source holds these as a separate data set.

The values that follow come from patent US10722576 (dated 2020).

What is called EC50 is the concentration needed to bring the measured effect to its halfway point. Low values mean higher potency in that assay, high ones lower potency in that assay.

Like-named read-outs stand apart in the source and are kept apart here.

T1 sequence (P02786 89-760): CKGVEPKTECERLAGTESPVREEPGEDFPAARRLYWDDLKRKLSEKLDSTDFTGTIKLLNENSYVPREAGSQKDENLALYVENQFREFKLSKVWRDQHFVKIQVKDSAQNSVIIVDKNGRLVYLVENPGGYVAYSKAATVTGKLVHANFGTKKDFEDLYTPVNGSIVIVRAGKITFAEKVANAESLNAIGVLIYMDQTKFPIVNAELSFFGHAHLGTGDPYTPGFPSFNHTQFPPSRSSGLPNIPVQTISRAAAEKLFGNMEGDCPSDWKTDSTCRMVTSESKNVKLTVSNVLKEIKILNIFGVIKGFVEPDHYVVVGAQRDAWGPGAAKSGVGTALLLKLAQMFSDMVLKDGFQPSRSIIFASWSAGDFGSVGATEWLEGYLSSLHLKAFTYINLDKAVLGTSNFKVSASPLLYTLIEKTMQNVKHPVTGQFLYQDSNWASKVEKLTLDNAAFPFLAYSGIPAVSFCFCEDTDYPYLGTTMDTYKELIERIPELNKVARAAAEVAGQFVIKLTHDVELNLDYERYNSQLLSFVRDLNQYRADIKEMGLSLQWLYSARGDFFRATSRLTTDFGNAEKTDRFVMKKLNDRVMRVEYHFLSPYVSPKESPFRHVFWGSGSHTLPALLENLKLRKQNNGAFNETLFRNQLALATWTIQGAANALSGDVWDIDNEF
T3 sequence (Q62351 89-763): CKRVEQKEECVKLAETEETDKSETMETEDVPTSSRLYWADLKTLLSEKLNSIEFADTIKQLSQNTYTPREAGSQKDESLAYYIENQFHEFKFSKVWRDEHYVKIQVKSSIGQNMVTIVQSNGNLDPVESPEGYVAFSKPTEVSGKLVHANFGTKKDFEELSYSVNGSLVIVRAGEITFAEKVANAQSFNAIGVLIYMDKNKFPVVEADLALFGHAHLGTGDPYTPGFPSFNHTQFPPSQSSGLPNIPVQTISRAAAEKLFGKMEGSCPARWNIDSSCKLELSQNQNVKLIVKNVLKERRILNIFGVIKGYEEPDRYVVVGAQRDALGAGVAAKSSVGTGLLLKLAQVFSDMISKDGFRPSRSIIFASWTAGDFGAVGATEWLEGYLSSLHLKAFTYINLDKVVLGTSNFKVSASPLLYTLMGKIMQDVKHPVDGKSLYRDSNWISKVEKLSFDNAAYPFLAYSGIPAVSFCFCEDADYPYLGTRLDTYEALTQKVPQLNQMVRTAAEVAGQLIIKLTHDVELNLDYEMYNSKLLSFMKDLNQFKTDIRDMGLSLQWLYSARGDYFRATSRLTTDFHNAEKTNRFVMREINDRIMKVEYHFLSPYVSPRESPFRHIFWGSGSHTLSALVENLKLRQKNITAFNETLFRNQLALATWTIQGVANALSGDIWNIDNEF

B1: H01-Fc (designed binder)
chain: ARVDQTPQTITKETGESLTINCVLRDSNCALSSTYWYRKKSGSTKEESISKGGRYVETVNSGSKSFSLRINDLTVEDSGTYRCNVWHDLVWSVCTTDVYGGGTVVTVNAASGA
In turn, B1 gave a half-maximal effective concentration (EC50) with human TfR-1 [1] of approximately 100 nM. Further, the binding result with human TfR-2 is given as “no binding”.

B2: F02-hFc (designed binder)
chain: ARVDQTPQTITKETGESLTINCVLRDNDCTLSSTHWYRKKSGSTNEERISKGGRYVETVNSGSKSFSLRINDLTVEDSGTYRCNVYAMTRNWWCDVYGGGTVVTVNAASGA
With B2, the EC50 was approximately 100 nM in the test with human TfR-1 [1]; 34.2 nM in the test with mouse TfR-1 [2]; 9 nM in the test with human TfR-1 [3]; 34.3 nM with mouse TfR-1 [4]; 26.3 nM in the test with human TfR-1 [5]. Besides, the binding result with human TfR-2 is reported as “no binding”.
